Results on 1 substance are retold here after paper PMC7980224.

What all share (assay): EMSA
Details in all cases: apparent Kd; RNA of Fig S1f not named, assumed U1; EMSA: 10 nM labeled RNA, 2-fold protein dilutions up to 10 uM, 2 h on ice, 1% TBE-agarose, 50 V, 4 C; binding buffer not stated (protein elution buffer 150 mM …)
Background: In EMSA bound probe runs differently from free probe, usually more slowly.

For series [1], the system named is INTS4;INTS9;INTS11 (human?;human?;human?).
For series [2], the system named is INTS10;INTS13;INTS14 (human?;human?;human?).
Another series concerns INTS5;INTS8.

As to U1 pre-snRNA stem-loop 4 with 3' box, the Kd in series [1] turned out to be 820 nM; in series [2], 780 nM; in the series with INTS5;INTS8, 3100 nM.
